Reference: patent publication US5851983A, “Elastase inhibitory polypeptide and process for production thereof by recombinant gene technology” (Teijin Limited, priority 1987, dated 1998)
pIC50: −log10 of the molar value.

Legend:
[1] = biological target: T1, polymorphonuclear leucocyte elastase from human sputum (Homo sapiens, UniProt P08246); assay: Treatment with polymorphonuclear leucocyte elastase from human sputum (Examples 27, 30); format: in vitro ADME; details: 37° C.; N-terminal sequencing of SDS-PAGE bands
T1 construct: Polymorphonuclear leukocyte elastase from human sputum (EPC Co; Funakoshi Yakuhin); purchased EPC Co. (via Funakoshi Yakuhin); host or cells: human sputum
T1 sequence (P08246 30-267): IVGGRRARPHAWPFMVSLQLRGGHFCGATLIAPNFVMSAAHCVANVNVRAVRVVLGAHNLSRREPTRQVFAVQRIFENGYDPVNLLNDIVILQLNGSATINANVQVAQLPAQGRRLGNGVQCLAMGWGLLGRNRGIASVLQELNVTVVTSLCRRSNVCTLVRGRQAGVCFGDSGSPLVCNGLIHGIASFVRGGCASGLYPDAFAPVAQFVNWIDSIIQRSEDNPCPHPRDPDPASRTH
Protocol: Polymorphonuclear leucocyte elastase from human sputum (EPC, Funakoshi Yakuhin) and SLPI were separately dissolved in a buffer (0.1M HEPES, 0.1M NaCl, 0.1% PEG 6000, pH 7.5) and the elastase solution was added to the SLPI solution, and the mixture was incubated at 37° C. Samples were taken as time elapsed, and to each sample were added Tris-HCl buffer (pH 6.8), SDS, 2-mercaptolethanol, glycerol, and Coomassie Brilliant Blue to final concentrations of 50 mM, 4 w/v %, 2 v/v %, 12 v/v % and 0.01 w/v % respectively. The mixture was subjected to SDS-polyacrylamide gel electrophoresis using Tricine (Sigma) as a polar buffer (Schagger, H., Anal. Biochem. 166, 368, 1987). After the electrophoresis, the gel was stained with Coomassie Brilliant Blue G-250, and decoloured with 50% (v/v) methanol/10% (v/v) acetic acid. […]
(3) Next, polypeptides thus generated were electrically transferred to a membrane (Immobilon-p^SQ Millipore) using a Milli Blot-SDE apparatus (Millipore). […] After drying, relevant bands were cut out, and the peptide was cleaved from the N-terminal using an Applied Biosystems Protein-Sequencer (Applied Biosystems; 477A), and after PTH-conversion, the resulting amino acid derivatives were analyzed by a PTH-Amino acid analyzer (Applied Biosystems, 120A) to determine the N-terminal amino acid sequence. […]

[2] = biological target: T2, polymorphonuclear leukocyte elastase from human sputum (Homo sapiens, UniProt P08246); assay: Serine protease inhibitory assay, Example 12: human elastase; format: biochemical; details: read-out: concentration of inhibitory protein which exhibits a 50% inhibition; enzyme 10^-9 M; MeO-Suc-Ala-Ala-Pro-Val-pNA 0.3 mM; 37° C.
T2 construct: Polymorphonuclear leukocyte elastase from human sputum (EPC Co; Funakoshi Yakuhin); purchased EPC Co. (via Funakoshi Yakuhin); host or cells: human sputum
T2 sequence (P08246 30-267): T1 sequence (P08246 30-267)
Protocol: (§1) To each well of a 96-well ELISA microplate were added 140 μl of the above-mentioned buffer, 20 μl of a test solution, and 20 μl of the enzyme solution, and the mixture was stirred at 37° C. for 30 minutes. Next, 20 μl of the substrate solution was added to the well, the mixture was stirred at 37° C. for one hour to develop same, and the absorbance at 405 nm was measured.

Calf pancreatic trypsin = biological target: T3, Calf pancreatic trypsin (Bos taurus, UniProt P00760); assay: Serine protease inhibitory assay, Example 12: trypsin; format: biochemical; details: read-out: concentration of inhibitory protein which exhibits a 50% inhibition; enzyme 10^-7 M; Bz-Arg-pNA 1.0 mM; 37° C.
T3 construct: (2) Calf pancreatic trypsin (Sigma); purchased Sigma; host or cells: calf pancreas
T3 sequence (P00760 24-246): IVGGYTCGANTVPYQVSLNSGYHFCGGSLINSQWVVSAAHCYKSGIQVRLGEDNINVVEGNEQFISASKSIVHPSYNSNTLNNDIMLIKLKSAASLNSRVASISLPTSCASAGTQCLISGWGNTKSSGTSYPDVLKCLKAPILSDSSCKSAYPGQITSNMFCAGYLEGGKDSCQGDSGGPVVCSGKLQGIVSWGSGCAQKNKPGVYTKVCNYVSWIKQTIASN
Protocol: Assay of serine protease inhibitory activity of active-type (Asn^55 -Ala^107) SLPI fragment polypeptide
The active-type (Asn^55 -Ala^107) SLPI fragment polypeptide obtained by refolding by the procedure shown in Example 11 as measured to determine its inhibitory activity to various serine proteases. The assay result thereof is shown as follows.
Enzyme solution: The following enzymes were dissolved in the above-mentioned buffer solutions at a concentration ten-times higher than the concentration shown in Table 4.
(2) Calf pancreatic trypsin (Sigma)
Substrate solution: For the above-mentioned enzymes (1) to (7), the following substrates (1) to (7), respectively, were dissolved in dimethyl sulfoxyde to a concentration of 10 mM to prepare stock solutions, which were then dissolved in the above-mentioned buffer solution to concentration ten-times higher than final concentrations, to prepare substrate solutions. […]
as §1
Moreover, an inhibitory constant Ki of the present (Asn^55 -Ala^107) SLPI was calculated on the basis of the above data by a method of Dixon, M. and Webb, E. C. (1979), Enzyme, Longman or a method of Henderson, P. J. F. (1972) Biochem. J., 127, 321-333.

In the case of “(Asn^55 -Ala^107) SLPI: polypeptide having an amino acid sequence starting with the 55th Asn and ending at the 107th Ala of SLPI (NPTRRKPGKCPVTYGQCLMLNPPNFCEMDGQCKRDLKCCMGMCGKSCVSPVKA)”, the “selective cleavage sites with elastase from human sputum” value [1] was “cleaved at the site between Thr^57 -Arg^58”, the pIC50 [2] was 9.00 and the pIC50 (Calf pancreatic trypsin) was 6.89.
